Data taken from paper PMC8197028.

How the values were obtained:
Experiment in all cases: NMR
[1] = target: Glu45 (UniProt position 795, --LSDEDFKAV); details: native (folded) state
[2] = target: Glu72 (UniProt position 822, QHLKKEKGLF-); details: native (folded) state
[3] = target: Asp46 (UniProt position 796, -LSDEDFKAVF); details: native (folded) state
[4] = tested on: Asp44; details: isolated peptide fragments, largely unstructured; cited from earlier work
[5] = target: Asp44 (UniProt position 794, ---LSDEDFKA); details: native (folded) state; cited from earlier work
[6] = fully folded over the whole pH range

In the case of “Villin headpiece helical subdomain HP36 D44N (not stated in the article (Gallus gallus inferred); D44N)”, the pKa [1, 6] is reported as 3.86±0.02, the pKa [2, 6] is reported as 4.32±0.02 and the pKa [3, 6] is reported as 3.43±0.05.

For “HP36 peptide fragment, residues 41-53 (not stated in the article (Gallus gallus inferred))”, the pKa [4] is given as 4.00.

In the case of “Villin headpiece helical subdomain HP36 K48M (not stated in the article (Gallus gallus inferred); K48M)”, the pKa ([1]; cited from earlier work) is given as 4.68±0.09, the pKa ([2]; cited from earlier work) is given as 4.41±0.03 and the pKa ([3]; cited from earlier work) is given as 3.38±0.05. The pKa [5] was 3.23±0.07.

With “Villin headpiece helical subdomain HP36 D44N/K48M (not stated in the article (Gallus gallus inferred); D44N;K48M)” the pKa [1, 6] was 4.39±0.05, the pKa [2, 6] was 4.37±0.03 and the pKa [3, 6] was 3.49±0.08.

For “Villin headpiece helical subdomain HP36, wild type (not stated in the article (Gallus gallus inferred))”, the pKa ([1]; cited from earlier work) is given as 3.95±0.02, the pKa ([2]; cited from earlier work) is given as 4.37±0.03 and the pKa ([3]; cited from earlier work) is given as 3.44±0.11. The pKa [5] was 3.04±0.12.
